From patent publication US20220073609A1 (DENALI THERAPEUTICS, published 2022)
No end group written: not given here.

What was measured:
[1] = target: Mouse TREM2 peptide (aa 131-169) (mouse) (UniProt Q99NH8); test: ELISA, biotinylated stalk peptide on streptavidin plate, anti-human kappa-HRP detection
[2] = target: Human TREM2 peptide (aa 129-172) (human); test: as above
[3] = target: T1, Mouse TREM2 peptide (aa 149-163) (mouse, UniProt Q99NH8 149-163, also: biotinylated); test: as above
T1 construct: range 149-163; also called truncated stalk peptide, mouse
T1 peptide (looked up): SFEGAQVEHSTSRNQ
Method: (§1) TREM2 antibodies were evaluated for binding to human and mouse TREM2 stalk region peptides. […] Antibody binding to TREM2 stalk peptides was detected using standard sandwich ELISA. Briefly, a 96-well half-area ELISA plate was coated with streptavidin overnight at 4° C. The following day, biotinylated TREM2 stalk peptides diluted in 1% BSA/PBS were added to the plate and incubated for 1 hour. Antibodies diluted in 1% BSA/PBS were then added and incubated for 1 hour. Antibodies bound to peptide were detected with anti-human kappa-HRP secondary antibody (Bethyl Laboratories, Inc.) diluted in 1% BSA/PBS. Plates were assayed by reaction with a detection reagent (One-step TMB Ultra, Thermo) and measurement of absorbance at 450 nm (A450) by standard spectrophotometry instrumentation (BioTek®). Data are shown as normalized values (fold over background where background=isotype control).

[4] = target: T2, Human TREM2 peptide (aa 149-163) (human, also: biotinylated); test: as above
T2 construct: also called truncated stalk peptide containing the ADAM10/17 cleavage site
T2 peptide: SFEDAHVEHSISRSL
Method: as §1

[5] = target: T3, recombinant cynomolgus TREM2 ECD (cynomolgus, UniProt A0A2K5UY34 49-204); test: SPR (Biacore), cynomolgus TREM2
T3 construct: extracellular domain; also called cyno TREM2
T3 sequence: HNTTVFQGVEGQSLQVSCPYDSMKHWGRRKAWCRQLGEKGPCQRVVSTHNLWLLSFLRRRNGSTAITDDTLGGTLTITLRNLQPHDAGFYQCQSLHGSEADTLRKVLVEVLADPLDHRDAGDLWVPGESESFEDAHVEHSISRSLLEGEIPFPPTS
Method: (§2) Surface plasmon resonance (Biacore™ 8K instrument) was used to measure anti-TREM2 antibody affinities for human and cynomolgus TREM2 ECD. Anti-TREM2 antibodies were captured using Human Fab Capture Kit (GE Healthcare Life Sciences, Catalog No. 28958325) on a Biacore Series S CM5 sensor chip (GE Healthcare Life Sciences, Catalog No. 29149604). Serial 3-fold dilutions of recombinant human or cynomolgus TREM2 were injected at a flow rate of 30 μL/min. Antibody binding was monitored for 300 seconds, followed by monitoring of antibody dissociation for 600+ seconds in HBS-EP+ running buffer (GE Healthcare Life Sciences, Catalog No. BR100669). The binding response was corrected by subtracting the RU value from a blank flow cell. A 1:1 Languir model of simultaneous fitting of kₒₙ, and koff was used for kinetics analysis.
(§3) The affinity of anti-TREM2 antibodies to human TREM2 and cynomolgus TREM2 were measured by Biacore (described in Example 1). The potency of anti-TREM2 antibodies were measured in healthy human volunteer CSF samples (Innovative Research) and healthy cynomolgus monkey CSF samples (Worldwide Primates), by MSD assay. The potency of each antibody was determined by its EC50. Briefly, MSD GOLD 96-well small spot streptavidin plates (MSD, Cat. No. L45SA) coated with capture antibody (biotinylated goat anti-human TREM2, R&D Systems, Cat. No. BAF1828) was incubated with biofluid samples diluted 1:3 in Assay Buffer (25% (v/v) MSD Blocker A (MSD, Cat. No. R93BA-A), 75% (v/v) TBST) for one hour at room temperature. After rinsing the wells with TBST, sulfo-tagged anti-TREM2 antibody was added in a serial dilution (4× dilution over 11 points) to the wells of the plate and incubated for one hour at room temperature. The wells were washed with TBST, and MSD Read Buffer (MSD, Cat. No. R92TC-3) was added to the wells. Signal from the samples were measured using an MSD Meso Sector 5600 device. EC50 values for each antibody was determined by four-parameter variable slope non-linear regression. Reference antibodies #1 and #2 correspond to 4C5 and 6E7 described in WO 2018/195506. Reference antibody #3 corresponds to AL2p-58 described in WO 2019/028292. The variable regions of reference antibody #1 are represented by SEQ ID NOS:73 and 74.

sTREM2 in cynomolgus CSF = target: T4, sTREM2 in cynomolgus CSF (cynomolgus monkey, UniProt A0A2K5UY34 49-187); test: MSD assay, sTREM2 from CSF captured by biotinylated goat anti-human TREM2, sulfo-tagged test antibody titrated
T4 construct: domain: soluble TREM2 (sTREM2); also called soluble TREM2 in healthy cynomolgus monkey CSF
T4 sequence: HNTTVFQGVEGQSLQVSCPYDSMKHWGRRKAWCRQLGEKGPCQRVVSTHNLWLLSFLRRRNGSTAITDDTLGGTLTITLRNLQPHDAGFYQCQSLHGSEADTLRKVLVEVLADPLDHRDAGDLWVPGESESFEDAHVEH
Method: as §3, with “74. The variable regions of reference antibody #2 are represented by SEQ ID NOS:75 and 76. The variable regions of reference antibody #3 are represented by SEQ ID NOS:77 and 78.” for “74.”

[6] = target: T3, recombinant cynomolgus TREM2 ECD; test: SPR (Biacore 8K), antibody captured with Human Fab Capture Kit, recombinant TREM2 ECD injected, 1:1 fit
Method: as §2

Mouse TREM2 peptide (aa 131-169) (mouse), sequence (Q99NH8 131-169 limits assumed, form in doubt): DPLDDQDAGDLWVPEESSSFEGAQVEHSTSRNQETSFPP
Human TREM2 peptide (aa 129-172) (human), sequence (peptide, as listed by the source): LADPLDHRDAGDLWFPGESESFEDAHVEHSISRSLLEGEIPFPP

Molecule: Isotype control (antibody)
- A450 fold over background (background = isotype control) [1]: 1 fold
- A450 fold over background (background = isotype control) [2]: 1 fold
- A450 fold over background (background = isotype control) [3]: 1 fold
- A450 fold over background (background = isotype control) [4]: 1 fold

B1: CL0020188-7 (antibody, V domains shown)
VH: EVQLVESGGGLVQPGGSLRLSCAASGFTFTDFYMSWVRQAPGKGLEWVSVIRNKANAYTAGYNPSVKGRFTISRDNSKNTLYLQMNSLRAEDTAVYYCARLTYGFDYWGQGTLVTVSS
VL: DIVMTQTPLSLPVTPGEPASISCQSSKSLLHSTGKTYLNWYLQKPGQSPQLLIYWMSTRASGVPDRFSGSGSGTDFTLKISRVEAEDVGVYYCQQFLEYPFTFGQGTKVEIK
notes: Humanized variant of CL0020188
- Kd [5]: 2.8 nM
- EC50 (sTREM2 in cynomolgus CSF): 0.72 nM

B2: CL0020123-5 (antibody, V domains shown)
VH: QVQLVQSGAEVKKPGASVKVSCKASGFSIEDFYIHWVRQAPGQGLEWMGWIDPEQGESKYAPKFQGRATITADTSTSTAYMELSSLRSEDTAVYYCHADHGNYGSTMDYWGQGTLVTVSS
VL: DIQMTQSPSSLSASVGDRVTITCHASQHINVWLSWYQQKPGKAPKLLIYKASNLHTGVPSRFSGSGSGTDFTLTISSLQPEDFATYYCQQGQTYPRTFGQGTKVEIK
notes: Humanized variant of CL0020123
- Kd [5]: 9.3 nM
- EC50 (sTREM2 in cynomolgus CSF): 49.4 nM

B3: CL0020123-7 (antibody, V domains shown)
VH: QVQLVQSGAEVKKPGASVKVSCKASGFSIEDFYIHWVRQAPGQGLEWMGWIDPENGESKYAPKFQGRVTITADTSTSTAYMELSSLRSEDTAVYYCHADHGNYGSTMDYWGQGTLVTVSS
VL: DIQMTQSPSSLSASVGDRVTITCHASQHINVWLSWYQQKPGKAPKLLIYKASNLHTGVPSRFSGSGSGTDFTLTISSLQPEDFATYYCQQGQTYPRTFGQGTKVEIK
notes: as for B2
- Kd [5]: 9.4 nM
- EC50 (sTREM2 in cynomolgus CSF): 16.9 nM

B4: Reference antibody #1 (antibody, V domains shown)
VH: EVQLVQSGAEVKKPGESLKISCKGSGHSFTNYWIAWVRQMPGKGLEWMGIIYPGDSDTRYSPSFQGQVTISADKSISTAYLQWSSLKASDTAVYFCARQRTFYYDSSGYFDYWGQGTLVTVSS
VL: DIQMTQSPSSVSASVGDRVTITCRASQGISNWLAWYQQKPGKAPKLLIYAASSLQVGVPLRFSGSGSGTDFTLTISSLQPEDFATYYCQQADSFPRNFGQGTKLEIK
notes: also called 4C5 (WO 2018/195506)
- Kd [5]: 14 nM
- EC50 (sTREM2 in cynomolgus CSF): 81.6 nM

B5: Reference antibody #2 (antibody, V domains shown)
VH: EVQLVQSGAEVKKPGESLKISCKGSGYSFTSYWIAWVRQMPGKGLEWMGIIYPGDSDTRYSPSFQGQVTISADKSISTAYLQWSSLKASDTAMYFCARQRTFYYDSSDYFDYWGQGTLVTVSS
VL: DIQMTQSPSSVSASVGDRVTITCRASQGISSWLAWYQQKPGKAPKLLIYAASSLQNGVPSRFSGSGSGTDFTLTISSLQPEDFATYFCQQADSFPRTFGQGTKLEIK
notes: also called 6E7 (WO 2018/195506)
- Kd [5]: 9.2 nM
- EC50 (sTREM2 in cynomolgus CSF): 6.5 nM

B6: Reference antibody #3 (antibody, V domains shown)
VH: QVQLVQSGAEVKKPGASVKVSCKASGYAFSSQWMNWVRQAPGQRLEWIGRIYPGGGDTNYAGKFQGRVTITADTSASTAYMELSSLRSEDTAVYYCARLLRNQPGESYAMDYWGQGTLVTVSS
VL: DVVMTQSPDSLAVSLGERATINCRSSQSLVHSNRYTYLHWYQQKPGQSPKLLIYKVSNRFSGVPDRFSGSGSGTDFTLKISRVEAEDVGVYYCSQSTRVPYTFGQGTKLEIK
notes: also called AL2p-58 (WO 2019/028292)
- Kd [5]: 9.2 nM
- EC50 (sTREM2 in cynomolgus CSF): 33.7 nM

B7: CL0020188 (antibody, V domains shown)
VH: EVKLLDSGGGLVQAGGSLRLSCAGSGFTFTDFYMSWIRQPPGKAPEWLGVIRNKANGYTAGYNPSVKGRFTISRDNTQNILYLQMNTLRAEDTAIYYCARLTYGFDYWGQGVMVTVSS
VL: DIVMTQGALPNPVPSGESASITCQSSKSLLHSNGKTYLNWYLQRPGQSPQLLIYWMSTRASGVSDRFSGSGSGTDFTLKISSVEAEDVGVYYCQQFLEYPFTFGSGTKLEIK
notes: also called Clone CL0020188
- A450 fold over background (background = isotype control) [3]: 0.9 fold
- A450 fold over background (background = isotype control) [4]: 3 fold
- Kd [6]: 2 nM

B8: CL0020123 (antibody, V domains shown)
VH: EVQLQQSGAELVRSGASVKLSCTASGFSIEDFYIHWVKQRPEQGLEWIGWIDPENGDSKYAPKFQGKATMTADTSSNTAYLHLSSLTSEDTAVYYCHADHGNYGSTMDYWGQGTSVTVSS
VL: DIQMNQSPSSLSASLGDTVTITCHASQHINVWLSWYQQKPGDHPKLLIYKASNLHTGVPSRFSGSGSGTGFTLTISSLQPEDIATYYCQQGQTYPRTFGGGTKLEIK
notes: also called Clone CL0020123
- A450 fold over background (background = isotype control) [3]: 0.9 fold
- Kd [6]: 5.7 nM

B9: CL0020188-4 (antibody, V domains shown)
VH: EVQLVESGGGLVQPGGSLRLSCAGSGFTFTDFYMSWVRQAPGKGPEWLSVIRNKANGYTAGYNPSVKGRFTISRDNSKNTLYLQMNSLRAEDTAVYYCARLTYGFDYWGQGTLVTVSS
VL: DIVMTQTPLSLPVTPGEPASISCQSSKSLLHSTGKTYLNWYLQKPGQSPQLLIYWMSTRASGVPDRFSGSGSGTDFTLKISRVEAEDVGVYYCQQFLEYPFTFGQGTKVEIK
notes: as for B1
- Kd [5]: 1.5 nM
- EC50 (sTREM2 in cynomolgus CSF): 0.28 nM
